Experimental data: patent publication US7662770

Biological target: EphA2 receptor tyrosine kinase, endogenous in MCF-10A and MDA-MB-231 human mammary epithelial cells (UniProt P29317)
Sequence of UniProt P29317 (P29317 whole entry, looked up): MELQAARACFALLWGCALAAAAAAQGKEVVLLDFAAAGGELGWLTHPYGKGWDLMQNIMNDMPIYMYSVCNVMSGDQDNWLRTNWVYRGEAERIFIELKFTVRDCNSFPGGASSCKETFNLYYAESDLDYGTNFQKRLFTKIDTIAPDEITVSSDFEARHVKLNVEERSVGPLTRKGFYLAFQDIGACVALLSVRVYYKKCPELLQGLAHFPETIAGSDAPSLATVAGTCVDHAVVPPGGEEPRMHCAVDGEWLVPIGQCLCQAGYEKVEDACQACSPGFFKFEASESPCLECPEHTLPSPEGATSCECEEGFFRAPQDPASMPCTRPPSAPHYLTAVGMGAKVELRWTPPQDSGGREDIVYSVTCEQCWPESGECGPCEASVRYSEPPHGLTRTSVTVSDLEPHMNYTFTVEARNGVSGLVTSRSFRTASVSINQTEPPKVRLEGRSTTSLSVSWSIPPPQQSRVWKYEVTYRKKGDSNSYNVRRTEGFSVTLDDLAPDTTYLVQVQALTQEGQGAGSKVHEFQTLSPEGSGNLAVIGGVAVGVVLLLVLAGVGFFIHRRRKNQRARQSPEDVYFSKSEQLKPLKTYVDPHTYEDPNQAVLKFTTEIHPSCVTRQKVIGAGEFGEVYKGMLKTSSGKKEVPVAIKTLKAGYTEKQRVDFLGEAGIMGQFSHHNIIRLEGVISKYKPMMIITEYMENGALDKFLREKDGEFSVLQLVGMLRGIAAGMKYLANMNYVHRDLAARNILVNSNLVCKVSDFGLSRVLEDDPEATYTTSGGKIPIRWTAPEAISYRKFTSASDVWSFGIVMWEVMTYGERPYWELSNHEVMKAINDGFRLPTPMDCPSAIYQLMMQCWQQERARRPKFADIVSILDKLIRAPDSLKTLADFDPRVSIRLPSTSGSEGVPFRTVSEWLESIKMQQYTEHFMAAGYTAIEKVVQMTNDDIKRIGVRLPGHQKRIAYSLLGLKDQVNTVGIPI

purified LMW-PTP protein (used in the in vitro dephosphorylation assays)
dephosphorylation of immunoprecipitated EphA2 (Western blot with PY20 and 4G10): purified LMW-PTP could dephosphorylate EphA2 in a dose and time-dependent manner
